# Article PMC7237333
# How the values were obtained:
# Test in all cases: purified protein
# [1] = system: C[C@H]1O[C@@H](n2cnc3c(N)ncnc32)[C@H](O)[C@@H]1O; settings: 40 mM K-phosphate pH 7.8, 0.1 M MgCl2, 30 °C
# [2] = system: CSC[C@H]1O[C@@H](n2cnc3c(N)ncnc32)[C@H](O)[C@@H]1O; settings: 40 mM K-phosphate pH 7.8, 0.1 M MgCl2, 30 °C
# purified protein [3] = substrate: O=P(O)(O)O[C@H]1O[C@H](CO)[C@@H](O)[C@H]1O; format: biochemical, Rhodospirillum rubrum; settings: 50 mM K-phosphate pH 7.8, 5 mM MgCl2, 0.3 mM CoCl2, 30 °C
# purified protein [4] = substrate: C[C@@H](O)[C@@H](O)C(=O)COP(=O)(O)O; format: biochemical, Bacillus subtilis; settings: 35 °C probably (used for weak substrates); 35.0 °C
# purified protein [5] = substrate: CSC[C@@H](O)[C@@H](O)C(=O)COP(=O)(O)O; format: biochemical, Bacillus subtilis; settings: 30 °C (also performed at 35 °C)
# purified protein [6] = substrate: CSC[C@H]1O[C@H](OP(=O)(O)O)[C@H](O)[C@@H]1O; format: biochemical, Escherichia coli; settings: 50 mM K-phosphate pH 7.8, 5 mM MgCl2, 0.3 mM CoCl2, 30 °C
# purified protein [7] = substrate: C[C@H]1O[C@H](OP(=O)(O)O)[C@H](O)[C@@H]1O; format: biochemical, Escherichia coli; settings: 50 mM K-phosphate pH 7.8, 5 mM MgCl2, 0.3 mM CoCl2, 30 °C
# purified protein [8] = substrate: CSC[C@H]1O[C@H](OP(=O)(O)O)[C@H](O)[C@@H]1O; format: biochemical, Bacillus subtilis; settings: 50 mM K-phosphate pH 7.8, 5 mM MgCl2, 0.3 mM CoCl2, 30 °C
molecule,measurement,setting,value
EcMtnN (Escherichia coli K-12),Km,[1],4.7 µM
same,kcat,[1],57 s⁻¹
same,kcat/Km,[1],1.2e+07 M⁻¹ s⁻¹
same,Km,[2],0.83 µM
same,kcat,[2],150 s⁻¹
same,kcat/Km,[2],1.8e+08 M⁻¹ s⁻¹
RrMtnA (Rhodospirillum rubrum ATCC 11170) (protein) MNVKGTPTRTIWPAREGGAVWIIDQTRLPHEFVTQRLNDLGAVAHAIRAMLVRGAPLIGATAAYGVALGMAEDPSDEGLTRACQTLLATRPTAVNLRWAIEAMAESLAAVPPDQRAQAAWAKAGAICDEDVALNEAIGDHGLGIIKDLARTKGVEKGGEGPINILTHCNAGWLATVDWGTALAPLYKAHDAGLPIHVWVDETRPRNQGASLTAWELNSHGVPHTVIADNTGGHLMQHGLVDMVIVGTDRTTATGDVCNKIGTYLKALAAFDNAVPFYVALPGPTIDWTVNDGLREIPIEQRDAAEVTRVWGRTAAGALEWVTITPTGSPAANYAFDVTPARLITGLITERGVCAASAAGLAGLYPERAPAPVPAGSAAGKGAAATADGAL,kcat,purified protein [3],0.03 s⁻¹
same,kcat/Km,purified protein [3],< 20 M⁻¹ s⁻¹
Bs MtnB (Bacillus subtilis subsp. subtilis str. 168) (protein) MAAKQERWRELAEVKRELAERDWFPATSGNLSIKVTDEPLTFLVTASGKDKRKETVEDFLLVDQNGEPAESGHSLKPSAETLLHTHLYNKTNAGCCLHVHTVNNNVISELYGDQKKITFKGQEIIKALGLWEENAEVTVPIIENPAHIPTLAALFAEEISEDSGAVLIRNHGITAWGKTAFEAKRVLEAYEFLFSYHLKLKTLEHQLVK,Km,purified protein [4],315 µM
same,kcat,purified protein [4],0.053 s⁻¹
same,kcat/Km,purified protein [4],200 M⁻¹ s⁻¹
same,Km,purified protein [5],24 µM
same,kcat,purified protein [5],16 s⁻¹
same,kcat/Km,purified protein [5],670000 M⁻¹ s⁻¹
EcMtnA (Escherichia coli S88) (protein) MNIKGKHYRTVWVSGDGKAVEIIDQTKLPFKFEVVALTSAEMAATAIQDMWVRGAPLIGVVAAYGIALGMNHDASDMGLQRYYDLLIKTRPTAINLKWALDRMIDTLKDLCVSERKDVAWALAAEIAEEDVALCEQIGLHGAEVIREIAQKKPAGSVVNILTHCNAGWLATVDWGTALSPIYKAHENGIPVHVWVDETRPRNQGGLTAFELGSHGIPHTLIADNAGGHLMQHGDVDLCIVGTDRTTARGDVCNKIGTYLKALAAHDNHVPFYVALPSPTIDWTIEDGKSIPIEQRDGKEQSHVYGINPQGELSWVNTAPEGTRCGNYAFDVTPARYITGFITERGVCAASKSALADMFADLKSKALQGEQH,Km,purified protein [6],50 µM
same,kcat,purified protein [6],0.49 s⁻¹
same,kcat/Km,purified protein [6],9800 M⁻¹ s⁻¹
same,Km,purified protein [7],222 µM
same,kcat,purified protein [7],2.02 s⁻¹
same,kcat/Km,purified protein [7],9100 M⁻¹ s⁻¹
BsMtnA (Bacillus subtilis subsp. subtilis str. 168) (protein) MTHSFAVPRSVEWKETAITILNQQKLPDETEYLELTTKEDVFDAIVTLKVRGAPAIGITAAFGLALAAKDIETDNVTEFRRRLEDIKQYLNSSRPTAINLSWALERLSHSVENAISVNEAKTNLVHEAIQIQVEDEETCRLIGQNALQLFKKGDRIMTICNAGSIATSRYGTALAPFYLAKQKDLGLHIYACETRPVLQGSRLTAWELMQGGIDVTLITDSMAAHTMKEKQISAVIVGADRIAKNGDTANKIGTYGLAILANAFDIPFFVAAPLSTFDTKVKCGADIPIEERDPEEVRQISGVRTAPSNVPVFNPAFDITPHDLISGIITEKGIMTGNYEEEIEQLFKGEKVH,Km,purified protein [8],114 µM
same,kcat,purified protein [8],3.9 s⁻¹
same,kcat/Km,purified protein [8],35000 M⁻¹ s⁻¹
